US20220119492A1 (MEDIKINE, published 2022)
Bridge positions count the residues as written; N and C are the ends. Ends that are not written are not given here.

Molecular target: T1, human IL-2Rβ (CD122 protein, Fc Tag) (27-239) (human, UniProt P14784 27-239)
T1 construct: range 27-239; Bought protein; also called hu-IL-2Rβ subunit; IL-2Rβ subunit; not shown: Fc tag of the bought protein
T1 sequence (looked up): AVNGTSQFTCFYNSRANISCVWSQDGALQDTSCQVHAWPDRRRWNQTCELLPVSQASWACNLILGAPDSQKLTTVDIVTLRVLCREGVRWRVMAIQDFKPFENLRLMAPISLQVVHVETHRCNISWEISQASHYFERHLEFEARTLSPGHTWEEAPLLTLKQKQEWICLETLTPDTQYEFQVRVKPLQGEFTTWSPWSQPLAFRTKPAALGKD
Assay: phage ELISA competition
Summary of the method: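 Test ligands and a phage tracer competed for human IL-2Rβ-Fc in a binding ELISA, with IC50 obtained from the absorbance readings of the ligand dilution series. Without washing, 50 μL of phage tracer went on for 45 min at 4° C, and bound phage was developed with TMB for 1 to 15 min at 25° C before stop solution and absorbance at 450 nm.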

IC50, < 100 µM:
WYPCSIASLGELCDLE [SEQ ID NO 2720]
LGSKRQWYPCWVAHLGELCDLE [SEQ ID NO 2730]
RYPCWIAQLGELCDLD [SEQ ID NO 2717]
RSGDKAFFPCWLAQLGDLCDLD [SEQ ID NO 2705]
IERAWEWRPCWLASVGELCDLE (disulfide 10-19 (inferred)) [SEQ ID NO 2743]
RYPCWRAKLGELCDLD [SEQ ID NO 2728]
AMARRYLPCWIAKLGELCELD [SEQ ID NO 2739]
NVTYTQWFPCWLARLGELCDLV (disulfide 10-19 (inferred)) [SEQ ID NO 2737]
WHPCWMARLGELCDLD [SEQ ID NO 2710]
WLPCYMAQLGDLCDLE [SEQ ID NO 2721]
DMFTHRWYPCSMAKLGELCDLE [SEQ ID NO 2735]
TESWYPCWLANLGDLCDLEWSA (disulfide 7-16 (inferred)) [SEQ ID NO 2708]
EEQSRGFLPCWMALLGELCDLD [SEQ ID NO 2729]
WYPCWMARMGELCDLE [SEQ ID NO 2714]
WTPCWIAQLGELCDLEGRHGTV [SEQ ID NO 2749]
KNGPKSWYPCWMAQVGDLCDLD [SEQ ID NO 2712]
FYPCWAAHLGDLCDLEYQEAGP [SEQ ID NO 2751]
WLPCWMADVGDLCDLD (disulfide 4-13 (inferred)) [SEQ ID NO 2709]
WYPCWMAQLGELCDMD [SEQ ID NO 2706]
ARGEYRWFPCWMARLGELCDLE [SEQ ID NO 2740]
QGTKWHWNPCWMAQLGELCDLD (disulfide 10-19 (inferred)) [SEQ ID NO 2711]
VASERFYPCWIARLGELCDVE [SEQ ID NO 2744]
LSSKGWYPCWKARLGDLCDLE (disulfide 9-18 (inferred)) [SEQ ID NO 2734]
WSPCWMASLGDLCDLEETRQTE (disulfide 4-13 (inferred)) [SEQ ID NO 2748]
WHPCWMAQVGEVCDLD [SEQ ID NO 2722]
WLPCWLAPLGDLCDMDMSAVMN [SEQ ID NO 2752]
YLERSRWYPCFIAQLGELCDLE [SEQ ID NO 2741]
LFPCWLAQLGELCDLE [SEQ ID NO 2716]
FRVSRDWFPCWMAQLGEVCDLE [SEQ ID NO 2742]
ESEGRGWYPCWNALLGELCDLE [SEQ ID NO 2731]
RVSYPCWLARLGELCDMDLEE [SEQ ID NO 2707]
WKPCWMALLGELCDLE [SEQ ID NO 2727]
YAEWYPCWMARVGEVCDLEVTP [SEQ ID NO 2704]
SGTGPAWYPCFLASLGQLCDLE [SEQ ID NO 2713]
MYPCWIAHLGELCDLD [SEQ ID NO 2719]
WYPCWLASLGEVCDLE [SEQ ID NO 2723]
MTDRAFWNPCWVARLGELCDLD [SEQ ID NO 2736]
RWTQAQWYPCWLAQLGELCDLE [SEQ ID NO 2732]
LHAGRWNPCWLAQLGELCDLE [SEQ ID NO 2733]
WYPCWRAQLGELCDLVDLGSHL [SEQ ID NO 2747]
WWPCSIARLGQLCDLD [SEQ ID NO 2724]
WYPCWLAQLGELCDAE [SEQ ID NO 2726]
LPCWIAQLGDLCDLEPEPSPE [SEQ ID NO 2750]
WLPCWRAQLGQLCDLD [SEQ ID NO 2715]
WYPCWLAHLGELCDLDWKGRND [SEQ ID NO 2746]
